Assay results published in patent publication US20260258125A1 (NONA BIOSCIENCES SUZHOU, published 2026).

T1: recombinant CEACAM5-his protein, biotinylated (UniProt P06731 35-685, limits assumed, biotinylated (sites not given))
T1 construct: not shown: His tag
T1 sequence (looked up): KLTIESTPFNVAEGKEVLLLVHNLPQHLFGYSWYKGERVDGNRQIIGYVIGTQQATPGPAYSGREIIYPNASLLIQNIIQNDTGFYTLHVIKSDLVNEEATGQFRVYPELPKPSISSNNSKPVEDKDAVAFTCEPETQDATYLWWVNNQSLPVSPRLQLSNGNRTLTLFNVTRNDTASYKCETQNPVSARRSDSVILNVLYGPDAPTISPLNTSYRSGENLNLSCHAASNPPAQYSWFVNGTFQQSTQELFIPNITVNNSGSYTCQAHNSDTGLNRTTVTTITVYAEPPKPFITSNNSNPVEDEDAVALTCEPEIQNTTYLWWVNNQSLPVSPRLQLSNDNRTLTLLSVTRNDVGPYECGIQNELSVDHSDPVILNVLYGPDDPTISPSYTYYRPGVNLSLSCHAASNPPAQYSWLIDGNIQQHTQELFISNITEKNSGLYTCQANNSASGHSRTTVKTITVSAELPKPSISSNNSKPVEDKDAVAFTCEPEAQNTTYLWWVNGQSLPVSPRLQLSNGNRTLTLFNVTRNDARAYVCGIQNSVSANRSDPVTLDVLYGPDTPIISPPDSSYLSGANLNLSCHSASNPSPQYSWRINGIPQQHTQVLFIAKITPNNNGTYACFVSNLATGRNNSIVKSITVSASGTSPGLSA

T2: human CEACAM8 protein (human, UniProt P31997 35-320)
T2 construct: Bought protein; also called huCEACAM8
T2 sequence (looked up): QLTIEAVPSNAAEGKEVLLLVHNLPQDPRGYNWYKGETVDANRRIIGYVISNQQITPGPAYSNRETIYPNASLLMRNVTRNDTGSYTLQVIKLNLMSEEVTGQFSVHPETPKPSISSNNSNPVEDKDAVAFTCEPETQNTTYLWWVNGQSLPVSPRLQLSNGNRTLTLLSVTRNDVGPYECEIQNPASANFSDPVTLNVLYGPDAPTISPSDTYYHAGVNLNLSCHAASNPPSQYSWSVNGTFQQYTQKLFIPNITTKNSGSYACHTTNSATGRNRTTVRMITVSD

T3: human CEACAM6 on 293T cells (293T-huCEACAM6 cells) (human, UniProt P40199 35-320)
T3 sequence (looked up): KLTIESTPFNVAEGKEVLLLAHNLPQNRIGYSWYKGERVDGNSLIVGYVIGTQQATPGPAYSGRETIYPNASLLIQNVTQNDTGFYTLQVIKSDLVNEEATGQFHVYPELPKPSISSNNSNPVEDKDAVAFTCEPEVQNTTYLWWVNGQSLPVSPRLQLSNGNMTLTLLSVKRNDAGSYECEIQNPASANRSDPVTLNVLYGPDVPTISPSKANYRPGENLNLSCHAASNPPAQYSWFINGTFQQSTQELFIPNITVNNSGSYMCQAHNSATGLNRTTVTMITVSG

T4: human CEACAM5 on 293T cells (293T-huCEACAM5 cells) (human, UniProt P06731 35-685)
T4 sequence (looked up): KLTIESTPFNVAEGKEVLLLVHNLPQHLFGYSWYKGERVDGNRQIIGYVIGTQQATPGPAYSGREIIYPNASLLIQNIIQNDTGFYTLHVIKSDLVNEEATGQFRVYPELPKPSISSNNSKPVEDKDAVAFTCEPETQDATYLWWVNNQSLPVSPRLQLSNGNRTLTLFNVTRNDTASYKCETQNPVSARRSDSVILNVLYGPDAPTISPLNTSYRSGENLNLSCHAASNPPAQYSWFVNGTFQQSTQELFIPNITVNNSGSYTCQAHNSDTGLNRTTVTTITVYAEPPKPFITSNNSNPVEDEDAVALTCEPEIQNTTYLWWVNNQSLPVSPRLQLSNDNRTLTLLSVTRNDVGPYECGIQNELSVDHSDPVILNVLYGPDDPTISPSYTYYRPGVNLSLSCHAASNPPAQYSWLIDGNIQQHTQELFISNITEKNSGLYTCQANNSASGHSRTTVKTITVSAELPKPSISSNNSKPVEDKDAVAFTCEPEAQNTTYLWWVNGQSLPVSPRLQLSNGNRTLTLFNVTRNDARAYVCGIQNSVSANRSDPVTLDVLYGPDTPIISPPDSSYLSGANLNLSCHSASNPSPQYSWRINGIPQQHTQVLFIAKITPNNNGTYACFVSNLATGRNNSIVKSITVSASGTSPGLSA

T5: human CEACAM3 protein (human, UniProt P40198 35-155)
T5 construct: Bought protein; also called huCEACAM3
T5 sequence (looked up): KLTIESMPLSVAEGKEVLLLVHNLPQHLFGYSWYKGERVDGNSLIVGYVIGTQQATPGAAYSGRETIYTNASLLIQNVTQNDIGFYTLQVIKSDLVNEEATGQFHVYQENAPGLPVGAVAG


What was measured:
[1] = target: T1, recombinant CEACAM5-his protein, …; test: Octet epitope binning on biotinylated CEACAM5-his; competitor PR304294
Experimental: (§1) In epitope binning analysis using Octet, antibodies were tested against other antibodies in a pairwise fashion to see if antibodies block one another's binding to the epitope of the antigen. The first and second antibodies was diluted into same concentration which could saturate the binding of immobilized antigens. Recombinant CEACAM5-his protein was biotinylationed and was then used as antigen and immobilized to SA sensor. The first antibody was associated with antigen and then followed by the second antibody. Data were analyzed by ForteBio Data Analysis Software (version 8.0, Pall ForteBio). The rate of RU values of the same antibody as 2nd antibody to as 1st antibody was calculated as the co-binding rate of this antibody to other antibodies.

[2] = target: T2, human CEACAM8 protein; test: ELISA, human CEACAM8 protein coated on the plate, anti-human Fc-HRP, OD450
Excerpt: (§2) Binding of recombinant anti-CEACAM5/6 dual-binding monoclonal antibodies against human and cynomolgus CEACAM5, and human CEACAM6 (Uniprot P40199), human CEACAM 1, 3 (NP_001806.2, Sino Biological 11933-H08H) and 8 (NP_001807.2, Acro Bio CE8-H5224) were detected by ELISA. Anti-CEACAM5/6 dual-antibodies were serially diluted in staining buffer (PBS containing 2% FBS). […] ELISA was used to test the binding between antibody containing supernatant or purified antibodies and the antigen. Briefly, the antigens were coated on a 96-well high binding plate overnight at 4° C. The plate was washed with PBST three times, incubated with blocking buffer (2% Bovine Serum Albumin) for one hour at 37° C., washed with PBST three times and incubated with antibody containing supernatant or purified antibodies at desired dilutions or concentrations for one hour at 37° C. A secondary antibody, anti-human Fc-HRP (Jackson Laboratory, 109-035-097) was used for detection of the targeted antibody. TMB and stopping solution were used for detection of HRP signal. The HRP signal was read on a SPECTRAMAX plate reader.

[3] = target: T1, recombinant CEACAM5-his protein, …; test: Octet epitope binning on biotinylated CEACAM5-his; competitor PR303561
Experimental: as §1

[4] = target: T3, human CEACAM6 on 293T cells …; test: cell-based or functional assay
[5] = target: T4, human CEACAM5 on 293T cells …; test: cell-based or functional assay
[6] = target: T4, human CEACAM5 on 293T cells …; test: flow cytometry on 293T-huCEACAM5 cells
Experimental: Binding of recombinant anti-CEACAM5/6 dual-binding antibodies against human or cynomolgus CEACAM5 or CEACAM6 stable cells were detected by flow cytometry. […] Anti-CEACAM5/6 dual-binding antibodies were incubated with the stable cell lines. Anti-CEACAM5/6 dual-binding antibodies were serially diluted in staining buffer (PBS containing 2% FBS). 50 μL of diluted antibody solution was added to 50 μL of cell suspension containing 1-2×10⁵ cells and incubated at 4° C. for 1 hour. […] After 1-hour incubation at 4° C., cells were washed twice and run on a flow cytometer. […] The results were shown in FIGS. 8-10 and Tables 6 below.

[7] = target: T5, human CEACAM3 protein; test: ELISA, antigen coated on plate
Excerpt: as §2

[8] = target: T2, human CEACAM8 protein; test: ELISA, antigen coated on plate
Excerpt: as §2

co-binding rate [1] | binding result [2] | co-binding rate [3] | Internalization of pHAb-dye-labelled antibody, MFI (37° C.-4° C.)/DAR [4] | Internalization of pHAb-dye-labelled antibody, MFI (37° C.-4° C.)/DAR [5] | EC50 [6] | binding result [7] | binding result [8] | Binder
1.8% | no binding (tested: 10 nM) | 102% | 14700 | 11300 | 1.26 nM |  |  | PR304294 (antibody, human IgG1, kappa, V domains shown, Recombinant full antibody) VH: EVQLLESGGGLVQPGGSLRLSCAASGFTFSSYAMSWVRQAPGKGLEWVSAISGTTYNTYYAGSVKGRFTISRDNSKNTLYLQMNSLRAEDTAVYYCAKGISVAGYYYYGMDVWGQGTTVTVSS VL: EIVMTQSPATLSVSPGERATLSCRASQSVISNLAWYQQKPGQAPRLLIYGASTRATGIPARFSGSGSGTEFTLTISSLQSEDFAVYYCHQYNNWPLTFGGGTKVEIKR
24.4% |  | 101% |  |  | 3.64 nM | no binding | no binding | PR304171 (antibody, human IgG1, kappa, V domains shown, Recombinant full antibody) VH: not shown VL: EIVMTQSPATLSVSPGERATLSCRASQNVISNLAWHQQKPGQAPRLLIYTTSTRATGIPARFSGSGSGTEFTLTISSLQSEDFAVYYCQQYNNWPLTFGGGTKVEIKR
